Measurements reported in patent publication US20120178909A1 (MorphoSys, published 2012).
Substitutions are numbered along the chain they refer to.

B1: AbD05445 (Fab, V domains shown)
VH: QVQLVESGGGLVQPGGSLRLSCAASGFTFSNNAMTWVRQAPGKGLEWVSLISYSGSSTYYADSVKGRFTISRDNSKNTLYLQMNSLRAEDTAVYYCARLGGNPLGPFDHWGQGTLVTVSS
VL: DIALTQPASVSGAPGQRVTISCTGTSSDIGGYSYVSWYQQHPGKAPKLMIYGVTKRPSGVSNRFSGSKSGNTASLTISGLQAEDEADYYCQSWATHPIRVFGGGTKLTVLG
B2: AbD05322 (Fab, V domains shown)
VH: QVQLVESGGGLVQPGGSLRLSCAASGFTFSNFWMSWVRQAPGKGLEWVSAISYSSSSTYFADSVKGRFTISRDNSKNTLYLQMNSLRAEDTAVYYCARAYRSYFDIWGQGTLVTVSS
VL: DIQMTQSPSSLSASVGDRVTITCRASQSISNWLNWYQQKPGKAPKLLIYNASILQSGVPSRFSGSGSGTDFTLTISSLQPEDFAVYYCQQNYGIPITFGQGTKVEIKR
B3: AbD05444 (Fab, V domains shown)
VH: QVQLVESGGGLVQPGGSLRLSCAASGFTFSSYWLNWVRQAPGKGLEWVSGISSSSSSTFYADGVKGRFTISRDNSKNTLYLQMNSLRAEDTAVYYCARHSYFDYWGQGTLVTVSS
VL: B2 VL with S30V, N31T, W32Y, N50A, I53N, N91L, G93S, I94H, I96P
B4: AbD05321 (Fab, V domains shown)
VH: QVQLVQSGAEVKKPGSSVKVSCKASGGTFSSHAISWVRQAPGQGLEWMGGIIPIFGMANYAQKFQGRVTITADESTSTAYMELSSLRSEDTAVYYCARYYWKPVLFDFDVWGQGTLVTVSS
VL: DIALTQPASVSGSPGQSITISCTGTSSDIGGNNYVSWYQQHPGKAPKVMIYEVSKRPSGVSNRFSGSKSGNTASLTISGLQAEDEADYYCSSYTMTIFVFGGGTKLTVLG
B5: AbD05320 (Fab, V domains shown)
VH: QVQLVQSGAEVKKPGESLKISCKGSGYSFTNYWISWVRQAPGKGLEWMGIIDPGDSDTNYSPSFQGQVTISADKSISTAYLQWSSLKASDTAMYYCARVNYYNFDYWGQGTLVTVSS
VL: DIVLTQSPATLSLSPGERATLSCRASQSVTSNLAWYQQKPGQAPRLLIYGNVSRRATGVPARFSGSGSGTDFTLTISSLEPEDFATYYCQQYGDYPATFGQGTKVEIKR
B6: AbD05446 (Fab, V domains shown)
VH: QVQLVESGGGLVQPGGSLRLSCAASGFTFNSNSMSWVRQAPGKGLEWVSGISGIGSNTNYADSVKGRFTISRDNSKNTLYLQMNSLRAEDTAVYYCARVHYYSGVVFDFWGQGTLVTVSS
VL: DIELTQPPSVSVAPGQTARISCSGDNLRTQYASWYQQKPGQAPVLVIYNKNKRPSGIPERFSGSNSGNTATLTISGTQAEDEADYYCAAWDSGSIVFGGGTKLTVLG

Target: T1, DV2 NS2B-NS3pro construct, wild type (strain 16681) (WNV strain of the DV serotype 2 (DV2; …, UniProt P29990 1393-1440; P29990 1476-1687)
T1 construct: range 1393-1440;range 1476-1687
Test: ELISA on coated construct

Row | Binder | binding result
1 | B1 | no binding (tested: 2 µg/ml antibody)
2 | B2 | no binding (tested: 2 µg/ml antibody)
3 | B3 | no binding (tested: 2 µg/ml antibody)
4 | B4 | no binding (tested: 2 µg/ml antibody)
5 | B5 | no binding (tested: 2 µg/ml antibody)
6 | B6 | no binding (tested: 2 µg/ml antibody)
